According to PMC9960136, “VH-Based Mini Q-Body: A Novel Quench-Based Immunosensor” (Sensors (Basel, Switzerland), 2023):

Key:
Conditions in all cases: both partners purified
hen egg lysozyme [1] = target: T1, hen egg lysozyme (Gallus gallus (hen), UniProt P00698); assay: ELISA; HEL or BSA (2 μg/mL in 100 μL PBS) coated on microplate wells, 16 h 4 °C; sdAb or mini Q-body added at 2 μg/mL, 1 h 37 °C; bound protein probed with anti-His-HRP
T1 construct: hen egg lysozyme (HEL), lysozyme C of the chicken; No supplier is named for HEL; also called HEL; antigen
T1 sequence (P00698 19-147): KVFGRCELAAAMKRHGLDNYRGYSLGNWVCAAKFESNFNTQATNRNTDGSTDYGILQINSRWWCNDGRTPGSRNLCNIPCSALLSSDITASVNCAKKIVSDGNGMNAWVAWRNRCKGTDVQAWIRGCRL

bovine serum albumin = target: T2, bovine serum albumin (Bos taurus (bovine), UniProt P02769); assay: other fluorescence titration; de-quenching at one concentration: 10 ng mini Q-body in 250 μL PBST; 10 μM antigen added, measured after 5 min; BSA as control antigen
T2 construct: bovine serum albumin (BSA); No supplier is named for BSA; also called BSA; control antigen
T2 sequence (P02769 25-607): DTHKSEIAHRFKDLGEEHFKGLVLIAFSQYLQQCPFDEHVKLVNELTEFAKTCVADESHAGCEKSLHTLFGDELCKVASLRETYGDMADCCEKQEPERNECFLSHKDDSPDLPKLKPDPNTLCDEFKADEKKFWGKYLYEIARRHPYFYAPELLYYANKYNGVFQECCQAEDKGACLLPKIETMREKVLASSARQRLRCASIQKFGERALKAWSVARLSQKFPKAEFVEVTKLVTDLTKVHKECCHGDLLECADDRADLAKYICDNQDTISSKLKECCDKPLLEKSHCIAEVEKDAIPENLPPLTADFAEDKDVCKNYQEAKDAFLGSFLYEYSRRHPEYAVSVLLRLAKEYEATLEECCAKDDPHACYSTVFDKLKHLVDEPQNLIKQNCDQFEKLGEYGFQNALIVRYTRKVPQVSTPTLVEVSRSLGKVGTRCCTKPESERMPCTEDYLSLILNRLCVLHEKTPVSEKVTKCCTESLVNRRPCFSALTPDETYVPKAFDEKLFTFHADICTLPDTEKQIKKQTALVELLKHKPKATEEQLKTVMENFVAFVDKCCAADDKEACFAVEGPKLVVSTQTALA

hen egg lysozyme [2] = target: T1, hen egg lysozyme; assay: other fluorescence titration; de-quenching dose response: 10 ng mini Q-body in 250 μL PBST in a quartz cell; antigen added stepwise (0, 1 nM to 10 μM) at 5 min intervals; EC50 by 4-parameter logistic fit

Binder | binding result (hen egg lysozyme [1]) | binding result (bovine serum albumin) | EC50 (hen egg lysozyme [2])
TAMRA-C5-labeled C3 W47F mini Q-body (VHH, as the VH of m1 with W47F; Same chain as m10 with the dye on the Cys-tag; also called W47F (after labeling with TAMRA-C5); source: labeled with TAMRA-C5; not shown: His-tag, C-terminal, kept) VHH: EVQLLESGGGLVQPGGSLRLSCAASGFRDSDEDMGWVRQAPGKGLEFVSSIYGESGSTYYADSVKGRFTISRDNSKNTLYLQMNSLRAEDTAVYYCASYNYYYNVFDYWGQGTLVTVSS | binds |  | 
C3 mini Q-body labeled with TAMRA-C5 (VHH, as the VH of m1; Same chain as m1 with the dye on the Cys-tag; also called TAMRA-C5-labeled C3 mini Q-body; TAMRA-labeled C3WT; not shown: His-tag, C-terminal, kept) VHH: EVQLLESGGGLVQPGGSLRLSCAASGFRDSDEDMGWVRQAPGKGLEWVSSIYGESGSTYYADSVKGRFTISRDNSKNTLYLQMNSLRAEDTAVYYCASYNYYYNVFDYWGQGTLVTVSS |  | no binding | 263 nM
C3 mutant W47F (unlabeled) (VHH, as the VH of m1 with W47F; not shown: His-tag, C-terminal, kept) VHH: EVQLLESGGGLVQPGGSLRLSCAASGFRDSDEDMGWVRQAPGKGLEFVSSIYGESGSTYYADSVKGRFTISRDNSKNTLYLQMNSLRAEDTAVYYCASYNYYYNVFDYWGQGTLVTVSS | binds |  | 
C3 mutant W36F (unlabeled) (VHH, as the VH of m1 with W36F; not shown: His-tag, C-terminal, kept) VHH: EVQLLESGGGLVQPGGSLRLSCAASGFRDSDEDMGFVRQAPGKGLEWVSSIYGESGSTYYADSVKGRFTISRDNSKNTLYLQMNSLRAEDTAVYYCASYNYYYNVFDYWGQGTLVTVSS | no binding (tested: 2 μg/mL) |  | 
C3 mini Q-body labeled with TAMRA-C6(5) (VHH, as the VH of m1; Same chain as m1 with the dye on the Cys-tag; not shown: His-tag, C-terminal, kept) VHH: EVQLLESGGGLVQPGGSLRLSCAASGFRDSDEDMGWVRQAPGKGLEWVSSIYGESGSTYYADSVKGRFTISRDNSKNTLYLQMNSLRAEDTAVYYCASYNYYYNVFDYWGQGTLVTVSS |  | no binding | 401 nM
C3 mini Q-body labeled with TAMRA-C2 (VHH, as the VH of m1; Same chain as m1 with the dye on the Cys-tag; not shown: His-tag, C-terminal, kept) VHH: EVQLLESGGGLVQPGGSLRLSCAASGFRDSDEDMGWVRQAPGKGLEWVSSIYGESGSTYYADSVKGRFTISRDNSKNTLYLQMNSLRAEDTAVYYCASYNYYYNVFDYWGQGTLVTVSS |  | no binding | 50 nM
C3 mini Q-body labeled with ATTO520 (VHH, as the VH of m1; Same chain as m1 with the dye on the Cys-tag; also called ATTO520-C2; not shown: His-tag, C-terminal, kept) VHH: EVQLLESGGGLVQPGGSLRLSCAASGFRDSDEDMGWVRQAPGKGLEWVSSIYGESGSTYYADSVKGRFTISRDNSKNTLYLQMNSLRAEDTAVYYCASYNYYYNVFDYWGQGTLVTVSS |  | no binding | 276 nM
C3 mini Q-body labeled with rhodamine 6G (R6G-C5) (VHH, as the VH of m1; Same chain as m1 with the dye on the Cys-tag; also called R6G-C5 Q-body; Rhodamine 6G-labeled mini Q-body; not shown: His-tag, C-terminal, kept) VHH: EVQLLESGGGLVQPGGSLRLSCAASGFRDSDEDMGWVRQAPGKGLEWVSSIYGESGSTYYADSVKGRFTISRDNSKNTLYLQMNSLRAEDTAVYYCASYNYYYNVFDYWGQGTLVTVSS |  | no binding | 397 nM
C3 mini Q-body labeled with TAMRA-C0 (VHH, as the VH of m1; Same chain as m1 with the dye on the Cys-tag; not shown: His-tag, C-terminal, kept) VHH: EVQLLESGGGLVQPGGSLRLSCAASGFRDSDEDMGWVRQAPGKGLEWVSSIYGESGSTYYADSVKGRFTISRDNSKNTLYLQMNSLRAEDTAVYYCASYNYYYNVFDYWGQGTLVTVSS |  | no binding | 39 nM
C3 mini Q-body labeled with TAMRA-C6(6) (VHH, as the VH of m1; Same chain as m1 with the dye on the Cys-tag; not shown: His-tag, C-terminal, kept) VHH: EVQLLESGGGLVQPGGSLRLSCAASGFRDSDEDMGWVRQAPGKGLEWVSSIYGESGSTYYADSVKGRFTISRDNSKNTLYLQMNSLRAEDTAVYYCASYNYYYNVFDYWGQGTLVTVSS |  | no binding | 362 nM
